Positions count from the first letter of the chain named.
T1: TROP2 on BxPC-3 and MDA-MB-231-KWL cells (human, UniProt P09758 27-323)
T1 construct: whole, on cells
T1 sequence (looked up): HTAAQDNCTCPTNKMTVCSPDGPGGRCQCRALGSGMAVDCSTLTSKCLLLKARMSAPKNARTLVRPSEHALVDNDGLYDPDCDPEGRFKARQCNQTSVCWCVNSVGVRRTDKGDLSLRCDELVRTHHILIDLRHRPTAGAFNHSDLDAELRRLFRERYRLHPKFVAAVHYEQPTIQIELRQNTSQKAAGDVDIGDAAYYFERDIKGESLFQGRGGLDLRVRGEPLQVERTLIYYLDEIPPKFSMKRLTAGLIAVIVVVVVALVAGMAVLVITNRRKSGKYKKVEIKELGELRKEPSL

B1: Sacituzumab (antibody, human IgG1, kappa, V domains shown)
VH: QVQLQQSGSELKKPGASVKVSCKASGYTFTNYGMNWVKQAPGQGLKWMGWINTYTGEPTYTDDFKGRFAFSLDTSVSTAYLQISSLKADDTAVYFCARGGFGSSYWYFDVWGQGSLVTVSS
VL: DIQLTQSPSSLSASVGDRVSITCKASQDVSIAVAWYQQKPGKAPKLLIYSASYRYTGVPDRFSGSGSGTDFTLTISSLQPEDFAVYYCQQHYITPLTFGAGTKVEIKR
notes: also called mAb (parental)
B2: mAb_Lm_Y92E_HC (antibody, human IgG1, kappa)
heavy: not shown
light: DIQLTQSPSSLSASVGDRVSITCKASQDVSIAVAWYQQKPGKAPKLLIYSASYRYTGVPDRFSGSGSGTDFTLTISSLQPEDFAVYYCQQHEITPLTFGAGTKVEIKRTVAAPSVFIFPPSDEQLKSGTASVVCLLNNFYPREAKVQWKVDNALQSGNSQESVTEQDSKDSTYSLSSTLTLSKADYEKHKVYACEVTHQGLSSPVTKSFNRGEC
B3: mAb_LC_Hm_Y32E (antibody, human IgG1, kappa)
heavy: not shown
light: B2 light with E92Y
B4: mAb_Lm_Y53R_HC (antibody, human IgG1, kappa)
heavy: not shown
light: B2 light with Y53R, E92Y
B5: mAb_LC_Hm_Y107N (antibody, human IgG1, kappa)
heavy: not shown
light: B2 light with E92Y
B6: mAb_Lm_D28H_HC (antibody, human IgG1, kappa)
heavy: not shown
light: B2 light with D28H, E92Y
B7: mAb_Lm_Y53V_HC (antibody, human IgG1, kappa)
heavy: not shown
light: B2 light with Y53V, E92Y
B8: mAb_Lm_Y53N_HC (antibody, human IgG1, kappa)
heavy: not shown
light: B2 light with Y53N, E92Y
B9: mAb_Lm_A32Q_HC (antibody, human IgG1, kappa)
heavy: not shown
light: B2 light with A32Q, E92Y
B10: mAb_Lm_I93G_HC (antibody, human IgG1, kappa)
heavy: not shown
light: B2 light with E92Y, I93G
B11: mAb_Lm_H91Y_HC (antibody, human IgG1, kappa)
heavy: not shown
light: B2 light with H91Y, E92Y
B12: mAb_LC_Hm_F101T (antibody, human IgG1, kappa)
heavy: not shown
light: B2 light with E92Y
B13: mAb_LC_Hm_W106A (antibody, human IgG1, kappa)
heavy: not shown
light: B2 light with E92Y
B14: mAb_Lm_H91K_HC (antibody, human IgG1, kappa)
heavy: not shown
light: B2 light with H91K, E92Y
B15: mAb_Lm_Y53P_HC (antibody, human IgG1, kappa)
heavy: not shown
light: B2 light with Y53P, E92Y
notes: built from the Sacituzumab light chain with the named substitution
B16: mAb_LC_Hm_F101E (antibody, human IgG1, kappa)
heavy: not shown
light: B2 light with E92Y
B17: mAb_Lm_V29R_HC (antibody, human IgG1, kappa)
heavy: not shown
light: B2 light with V29R, E92Y
B18: mAb_LC_Hm_F108S (antibody, human IgG1, kappa)
heavy: not shown
light: B2 light with E92Y
B19: mAb_LC_Hm_W106E (antibody, human IgG1, kappa)
heavy: not shown
light: B2 light with E92Y
B20: mAb_LC_Hm_G33P (antibody, human IgG1, kappa)
heavy: not shown
light: B2 light with E92Y
B21: mAb_Lm_A32P_HC (antibody, human IgG1, kappa)
heavy: not shown
light: B2 light with A32P, E92Y
B22: mAb_LC_Hm_Y107I (antibody, human IgG1, kappa)
heavy: not shown
light: B2 light with E92Y
B23: mAb_LC_Hm_W106L (antibody, human IgG1, kappa)
heavy: not shown
light: B2 light with E92Y
B24: mAb_LC_Hm_G33I (antibody, human IgG1, kappa)
heavy: not shown
light: B2 light with E92Y
B25: mAb_LC_Hm_F29G (antibody, human IgG1, kappa)
heavy: not shown
light: B2 light with E92Y
B26: mAb_LC_Hm_F108Q (antibody, human IgG1, kappa)
heavy: not shown
light: B2 light with E92Y
B27: mAb_Lm_S50L_HC (antibody, human IgG1, kappa)
heavy: not shown
light: B2 light with S50L, E92Y
B28: mAb_Lm_Y53S_HC (antibody, human IgG1, kappa)
heavy: not shown
light: B2 light with Y53S, E92Y
B29: mAb_Lm_Q89V_HC (antibody, human IgG1, kappa)
heavy: not shown
light: B2 light with Q89V, E92Y
B30: mAb_LC_Hm_S104D (antibody, human IgG1, kappa)
heavy: not shown
light: B2 light with E92Y
B31: mAb_LC_Hm_N31P (antibody, human IgG1, kappa)
heavy: not shown
light: B2 light with E92Y
B32: mAb_LC_Hm_G33S (antibody, human IgG1, kappa)
heavy: not shown
light: B2 light with E92Y
B33: mAb_Lm_S50T_HC (antibody, human IgG1, kappa)
heavy: not shown
light: B2 light with S50T, E92Y
B34: mAb_LC_Hm_F108T (antibody, human IgG1, kappa)
heavy: not shown
light: B2 light with E92Y
B35: mAb_Lm_Y92N_HC (antibody, human IgG1, kappa)
heavy: not shown
light: B2 light with E92N
B36: mAb_Lm_S30R_HC (antibody, human IgG1, kappa)
heavy: not shown
light: B2 light with S30R, E92Y
B37: mAb_Lm_T94F_HC (antibody, human IgG1, kappa)
heavy: not shown
light: B2 light with E92Y, T94F
B38: mAb_Lm_Y92A_HC (antibody, human IgG1, kappa)
heavy: not shown
light: B2 light with E92A
B39: mAb_LC_Hm_Y105S (antibody, human IgG1, kappa)
heavy: not shown
light: B2 light with E92Y

target: T1, TROP2 on BxPC-3 and MDA-MB-231-KWL cells; test: on-cell ELISA, BxPC-3 cells (TROP2 high); parameters: unit not given beside the values
Experimental: (§1) Cells were plated in duplicate onto 96-well plates, and primary antibody was diluted in cell culture medium with a starting concentration of 30 μg/mL (200 nM) with a dilution factor of 1:5. […] Data was plotted and analyzed. EC50 ([…]) was measured along with area under the curve (AUC) for each cell line.

Row | Binder | AUC (BxPC-3)
1 | B1 | 318
2 | B2 | 165
3 | B3 | 298
4 | B4 | 323
5 | B5 | 317
6 | B6 | 300
7 | B7 | 317
8 | B8 | 309
9 | B9 | 142
10 | B10 | 305
11 | B11 | 184
12 | B12 | 314
13 | B13 | 215
14 | B14 | 294
15 | B15 | 304
16 | B16 | 300
17 | B17 | 291
18 | B18 | 303
19 | B19 | 140
20 | B20 | 142

Row | Binder | AUC (BxPC-3)
21 | B21 | 256
22 | B22 | 265
23 | B23 | 251
24 | B24 | 286
25 | B25 | 291
26 | B26 | 324
27 | B27 | 133
28 | B28 | 307
29 | B29 | 299
30 | B30 | 285
31 | B31 | 289
32 | B32 | 281
33 | B33 | 305
34 | B34 | 278
35 | B35 | 226
36 | B36 | 216
37 | B37 | 318
38 | B38 | 160
39 | B39 | 268

target: T1, TROP2 on BxPC-3 and MDA-MB-231-KWL cells; test: on-cell ELISA, BxPC-3 vs MDA-MB-231-KWL cells
Experimental: as §1

Row | Binder | ΔAUC
40 | B1 | 70.1
41 | B2 | 148
42 | B3 | 104
43 | B4 | 143
44 | B5 | 86.5
45 | B6 | 86.6
46 | B7 | 105
47 | B8 | 169
48 | B9 | 124
49 | B10 | 85.3
50 | B12 | 93.1
51 | B13 | 186
52 | B14 | 132
53 | B15 | 134
54 | B16 | 142
55 | B17 | 80.5
56 | B18 | 76.1
57 | B19 | 117
58 | B20 | 134

Row | Binder | ΔAUC
59 | B21 | 192
60 | B22 | 101
61 | B23 | 191
62 | B24 | 156
63 | B25 | 71.9
64 | B26 | 94.9
65 | B27 | 129
66 | B28 | 102
67 | B29 | 98.1
68 | B30 | 178
69 | B31 | 116
70 | B32 | 144
71 | B33 | 148
72 | B34 | 71.4
73 | B35 | 181
74 | B36 | 169
75 | B37 | 77.4
76 | B38 | 147
77 | B39 | 188

target: T1, TROP2 on BxPC-3 and MDA-MB-231-KWL cells; test: on-cell ELISA, MDA-MB-231-KWL cells (TROP2 low); parameters: unit not given beside the values
Experimental: as §1

Row | Binder | AUC (MDA-MB-231-KWL)
78 | B1 | 248
79 | B2 | 16.1
80 | B3 | 193
81 | B5 | 230
82 | B6 | 214
83 | B7 | 213
84 | B8 | 140
85 | B9 | 17.8
86 | B10 | 220
87 | B11 | 16.9
88 | B12 | 221
89 | B13 | 28.7
90 | B14 | 162
91 | B16 | 158
92 | B18 | 227
93 | B19 | 22.2
94 | B20 | 7.7

Row | Binder | AUC (MDA-MB-231-KWL)
95 | B21 | 64.3
96 | B22 | 163
97 | B23 | 60.9
98 | B24 | 129
99 | B25 | 219
100 | B26 | 230
101 | B27 | 4.22
102 | B28 | 205
103 | B29 | 201
104 | B31 | 173
105 | B32 | 137
106 | B33 | 157
107 | B34 | 207
108 | B36 | 47.1
109 | B37 | 240
110 | B38 | 13.1
111 | B39 | 80
